Measurements taken from publication PMC10214136 (Proceedings of the National Academy of Sciences of the …, 2023).
Residue numbers refer to the chain shown, from its start. In names and notes the source's numbering stands. Where two headings read alike, the source gives them in different places.

Key:
[1] = biological target: FtsEX complex (Pseudomonas aeruginosa), wild type, in peptidiscs (Pseudomonas aeruginosa); assay: cryo-EM structure
[2] = biological target: T1, FtsE (Pseudomonas aeruginosa), wild type (Pseudomonas aeruginosa, UniProt A0A069QBX1 1-223); assay: co-purification
T1 sequence: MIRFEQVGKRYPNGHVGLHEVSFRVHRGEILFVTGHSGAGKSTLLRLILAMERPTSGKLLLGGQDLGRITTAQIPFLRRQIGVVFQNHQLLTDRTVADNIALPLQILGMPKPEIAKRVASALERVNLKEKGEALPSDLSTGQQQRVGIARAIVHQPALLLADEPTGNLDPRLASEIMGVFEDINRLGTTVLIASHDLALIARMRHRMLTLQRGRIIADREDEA

[3] = biological target: the molecule itself; assay: cryo-EM structure
[4] = substrate: Nc1ncnc2c1ncn2[C@@H]1O[C@H](COP(=O)(O)OP(=O)(O)OP(=O)(O)O)[C@@H](O)[C@H]1O; assay: purified protein; conditions: ATP/MgCl2, pH 7.5, 37 °C, FtsEX in peptidiscs with EnvC
[5] = biological target: the molecule itself; assay: cryo-EM structure; remark: listed apart in the source
[6] = biological target: FtsE^E163QX–EnvC complex (Pseudomonas aeruginosa) (Pseudomonas aeruginosa); assay: cryo-EM structure

**Q.** How did the stoichiometry N (EnvC per FtsE2-FtsX2 complex) [1] turn out when “EnvC (Pseudomonas aeruginosa), envC^Δ19 construct, wild type (natural protein)” was run?
**A.** 1

B1: FtsX (Pseudomonas aeruginosa) (natural protein)
chain: MSANDLPRGPEEGAPERKTREKPSQEQTDWSGSFSAYLESHRASLVDSLRRLFGHPFGSFFTCLVMGITLSLPMGLSLLLNNVERLGGSWQRAAQISLFLDLKTSENQGQDLREQIERLPDVIEAQLISREQALSELQEQSGLGEALKELPENPLPPVISVTPKQIDRAGLEALRQQLAELPHVQQAQLDLVWVERLSAILKLGERFVFGLTILLVLTLLLVVGNTIRLHIENRRNEIEVIKLVGGTDGYVRRPFLYMGALYGLGAGILSWALLAYSLNWLNGSVVNLSGLYGSDFGLQGVPLDDGLSLTVGAVLLGWVGAWLAVARHLRELAPR
**Q.** For B1, which “stoichiometry N” value [2] is on record?
**A.** 1 FtsE:FtsX molar ratio

**Q.** And the “stoichiometry N” value [3]?
**A.** 2

B2: FtsEX/EnvC (FtsEX–EnvC complex) (Pseudomonas aeruginosa PAO1) (protein)
chain: T1 sequence
**Q.** B2 was tested. Which Km [4] did it give?
**A.** 230 µM

B3: FtsE^E163Q (Pseudomonas aeruginosa) (natural protein)
chain: T1 sequence with E163Q
**Q.** With B3 as the molecule, how does the “stoichiometry N” value [5] read?
**A.** 2

B4: AmiB (Pseudomonas aeruginosa), amiB^Δ29 construct (enzyme)
chain: SLLQAHLSHRSALRSRFRFDPAAVMDCLRAEVLGQDPALQAVEDMLKVVRADIADPRRPLFSALFLGPTGVGKTEIVRALARALHGDAEGFCRVDMNTLSQEHYAAALTGAPPGYVGAKEGTTLLEQDKLDGSPGRPGIVLFDELEKASPEVVHALLNVLDNGLLRVASGERTYHFRNTLVFMTSNLCAHEIQRYDERRQRLPWRLLPVGGERRRRDIDGMVRARLLKTFSPEFVNRLDSVVTFNWIERDVVARLVELEVQRLNRRLEKHRCRLEATPEVLAKIARAGFDRQFGARALRRSVRHHLEVPLAEHLLDHHQPGDGNCTTYLASLEHERVRFVRR
**Q.** Which stoichiometry N (AmiB per FtsE2-FtsX2-EnvC complex) [6] does the source give for B4 here?
**A.** 1
